T1: Swi1 (S. cerevisiae, UniProt P09547 1-1314)
T1 sequence: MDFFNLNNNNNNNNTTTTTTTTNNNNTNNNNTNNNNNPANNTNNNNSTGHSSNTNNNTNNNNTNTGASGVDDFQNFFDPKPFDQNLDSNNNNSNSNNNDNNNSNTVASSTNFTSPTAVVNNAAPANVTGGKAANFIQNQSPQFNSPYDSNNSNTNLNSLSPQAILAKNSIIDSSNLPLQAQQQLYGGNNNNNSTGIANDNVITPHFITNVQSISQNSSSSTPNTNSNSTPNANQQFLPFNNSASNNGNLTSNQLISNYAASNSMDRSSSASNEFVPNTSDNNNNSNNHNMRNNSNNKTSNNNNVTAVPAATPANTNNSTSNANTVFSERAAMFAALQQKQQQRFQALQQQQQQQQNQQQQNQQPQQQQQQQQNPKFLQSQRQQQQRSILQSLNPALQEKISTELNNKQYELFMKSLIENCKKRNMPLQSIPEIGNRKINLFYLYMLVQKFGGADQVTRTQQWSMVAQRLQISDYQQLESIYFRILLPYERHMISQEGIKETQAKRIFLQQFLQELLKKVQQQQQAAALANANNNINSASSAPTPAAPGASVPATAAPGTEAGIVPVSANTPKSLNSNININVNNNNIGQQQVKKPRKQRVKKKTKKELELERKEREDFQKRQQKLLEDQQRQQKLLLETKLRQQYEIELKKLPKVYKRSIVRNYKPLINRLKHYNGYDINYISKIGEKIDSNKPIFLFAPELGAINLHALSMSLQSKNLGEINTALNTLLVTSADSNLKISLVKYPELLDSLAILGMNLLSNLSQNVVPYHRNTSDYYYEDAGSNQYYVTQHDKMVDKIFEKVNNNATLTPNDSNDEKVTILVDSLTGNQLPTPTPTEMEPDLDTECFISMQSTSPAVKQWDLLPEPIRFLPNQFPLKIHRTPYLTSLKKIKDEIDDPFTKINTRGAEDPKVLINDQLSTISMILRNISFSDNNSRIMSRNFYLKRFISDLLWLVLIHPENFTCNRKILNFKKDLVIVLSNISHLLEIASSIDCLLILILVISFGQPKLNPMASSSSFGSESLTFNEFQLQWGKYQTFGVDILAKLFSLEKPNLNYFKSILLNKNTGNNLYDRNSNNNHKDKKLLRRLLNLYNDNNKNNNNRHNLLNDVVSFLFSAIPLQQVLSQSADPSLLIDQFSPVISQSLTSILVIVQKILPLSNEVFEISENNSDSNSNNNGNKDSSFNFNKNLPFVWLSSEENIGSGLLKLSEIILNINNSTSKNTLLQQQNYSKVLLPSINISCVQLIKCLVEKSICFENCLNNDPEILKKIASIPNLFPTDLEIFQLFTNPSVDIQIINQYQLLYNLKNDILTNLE

B1: Swp82 (natural protein)
chain: MLGEDEGNTVLEKGNNPSVKQGEVGAVFIVPKILIREHERVILKQILQILDQDELVQPPLDKFPYKKLELPKYIDELKTRDATNTSYKMIQLDAYGEKKVGSNGELFGGRHYLFNTFTFTAHMGVLLVLLQDVIKVLYQSNATHDEDEFIVQHDQILVMETSEEQTKFLAKNGVIPEESKGSFKYITARSAFVEFGASVIAGGQRIVDDYWESLAKKQNLSSHQRVFKLSTNLISKISLLRPSFQNNRISNANEISANTNNTCTISTSKFESQYPIVTEQPSAEIREAYIENFAKGEHISAIVPGQSISGTLELSAQFRVPRYHSKNSFQQALQMKAMDIPIGRHEELLAQYESQAPDGSASISLPNHIPSVNPSNKPIKRMLSSILDINVSSSKNKKSEENEMIKPMNKGQHKNNTSLNINGWKFESLPLKSAENSGKQQYYRGLPLYEKNTLLERLKQLTPNEIKELEHLHDAVFVNTGLQNVRKVRTKKWKKYWQYKAGIPIGLKRSQLDEFKNKYLKDVLAQTSVTTNFNEITNTDETITTKRVPNPNFLGNCNIKDFKPPYIYSHVNKVPQNVAGDKTAVKLDTEVKNTNANPVVATDPVAAKPDNLANFSNEVAMNN
B2: Snf6 (natural protein)
chain: MGVIKKKRSHHGKASRQQYYSGVQVGGVGSMGAINNNIPSLTSFAEENNYQYGYSGSSAGMNGRSLTYAQQQLNKQRQDFERVRLRPEQLSNIIHDESDTISFRSNLLKNFISSNDAFNMLSLTTVPCDRIEKSRLFSEKTIRYLMQKQHEMKTQAAELQEKPLTPLKYTKLIAAAEDGSRSTKDMIDAVFEQDSHLRYQPDGVVVHRDDPALVGKLRGDLREAPADYWTHAYRDVLAQYHEAKERIRQKEVTAGEAQDEASLQQQQQQDLQQQQQVVTTVASQSPHATATEKEPVPAVVDDPLENMFGDYSNEPFNTNFDDEFGDLDAVFF
B3: Swi3 (natural protein)
chain: MENTLGEGSTVNASVDVDQHGNDNNSDSNANAAVAGVANTDTAGEESQQQDESLKDEATVPNTRDAESEAITVTAKQQPTMQANKLDSQETPSTEESRAQNVFGQDNEDSDNLFGETESSVSNNEANTPSIPTNPVDNENNKPAIKEDSTIQDSNGDVKNMEDVKIQKEEEPENNTVIEGVKEESQPDENTKEMDEVEEDDEDDDQPMISPDNSIFGDTKSESKQLGNTSSVANTPSEIPDAHKAEQEDIIEKTESVDKKVDSGEERNEQEREIMNDHSKSANPKKTTITRVEPETFEIPQAHEIVIPSYSKWFNLEKIHSIEVQSLPEFFTNRIPSKTPEVYMRYRNFMVNSYRLNPNEYFSVTTARRNVSGDAAALFRLHKFLTKWGLINYQVDSKLLPKNIEPPLTSQYSTRHDAPRGLFPFESYKPSVQLPDMAKLKKMMNTSDSESTLYKYLKESKRKYDEITHPPSTTDDENGDKNDNGGKMNNEVSTSTSMTGDANLLEEGETSRPLKKVKILEQIDENWSKEDLQKLLKGIQEFGADWYKVAKNVGNKSPEQCILRFLQLPIEDKFLYGDGNGKGDNDNGLGPLKYAPHLPFSKSENPVLSTIAFLVGLVNPKTVQSMTQRAIQSAESIKSQKEEISDQKPIEHIKEGSEIAISSLGYRSHIFATNEERQMNFLTNELIRLQMEKLDAKLNHLKKLEKFMELERKTLERQQENLLIQRLNFNQNSSKIVNVLSKCLNLISDSNINNSSVAEKEEIRSQIDHFKSMLSKPETLSIGKNPFNKPNIETGENHNGQSISNENDVKPISIEAPQFYRYWSA
B4: Snf12 (natural protein)
chain: MSKVMKPSNGKGSRKSSKAATPDTKNFFHAKKKDPVNQDKANNASQITPTVPHSHPSDMVIPDHLAELIPELYSFQQLVDSEKRLDHFIHLRNLHMKRMVAQWERSKLSQEFLYPHLNFPNVKFLRIFISNVSENQPWQMDTNNEADLMALENATWTMRIEGRLLDNVQANDPAREKFSSFIESIVVDFKNKENDNVPSTKFNAAPEENATEGPSDKKLNLNLPLQFSLPNGDNSTTTNTDQNNATMGEETAKKDMSSTTPKLESVKWQYDPNNPVDFDGLDIKRVGSENVECTISILRKSSPEEPFMSYSPQLTAIIGLKSGTSHDAIFSIYKYIHLNELLTNDESAFENLMGNRNNHNSNTSTSKMLDAASSQVSIVKLDTQLITLLPSSLKESSPDTMKLTDLLSLINSTHLLPLQPIEIDYTVRVDKASTYGELVLDIEVPDVNALKFNNTQRESQIGAAELNENARELEQIKPKIALQDKEITSVLSNLHESNKRYRFFKKISEDPVKALNECIASTSNALKVLSGDEGYNEDMVRRANFYKENEAMLRENIEVILSNGRM
B5: Snf5 (natural protein)
chain: MNNQPQGTNSVPNSIGNIFSNIGTPSFNMAQIPQQLYQSLTPQQLQMIQQRHQQLLRSRLQQQQQQQQQTSPPPQTHQSPPPPPQQSQPIANQSATSTPPPPPAPHNLHPQIGQVPLAPAPINLPPQIAQLPLATQQQVLNKLRQQAIAKNNPQVVNAITVAQQQVQRQIEQQKGQQTAQTQLEQQRQLLVQQQQQQQLRNQIQRQQQQQFRHHVQIQQQQQKQQQQQQQHQQQQQQQQQQQQQQQQQQQQQQQQQQQQQQQQQQQQQGQIPQSQQVPQVRSMSGQPPTNVQPTIGQLPQLPKLNLPKYQTIQYDPPETKLPYPTYWSDKKADTDTLLYEQIIQRDKINKYSLIRETNGYDPFSIYGFSNKEYISRLWHTLKYYQDLKNTRMKSITSTSQKIPSASIWGNGYSGYGNGITNTTTRVIPQVEVGNRKHYLEDKLKVYKQAMNETSEQLVPIRLEFDQDRDRFFLRDTLLWNKNDKLIKIEDFVDDMLRDYRFEDATREQHIDTICQSIQEQIQEFQGNPYIELNQDRLGGDDLRIRIKLDIVVGQNQLIDQFEWDISNSDNCPEEFAESMCQELELPGEFVTAIAHSIREQVHMYHKSLALLGYNFDGSAIEDDDIRSRMLPTITLDDVYRPAAESKIFTPNLLQISAAELERLDKDKDRDTRRKRRQGRSNRRGMLALSGTSASNTSMNGVHNTVAAGNASSLPPGEILLPDIADIPRTFRTPVPSTLMPGGVDVGPSVESYELRNTTTYKSRPDRPKPVSPPCYIIDHIPGHSLLLSIKLPGKVNTKEEFAAAPNDTSSGTNAMLPSPESLKTKLNSNIRAGVTIPSIPNPIANHTVTNSPNPTLQPVIPGGAASKSVPTPSLPIAPPVAPHDSEATLLTNSNNGSSNNNTQNT

Assays:
Assay in all cases: cryo-EM structure
Snf5 = target: B5
Swi3 = target: B3
Swi1 = target: T1, Swi1
Snf12 = target: B4
Snf2 = Snf2 (S. cerevisiae, UniProt P22082 1-1703)
cryo-EM structure = target: the molecule itself

Sequence of Snf2 (P22082 whole entry): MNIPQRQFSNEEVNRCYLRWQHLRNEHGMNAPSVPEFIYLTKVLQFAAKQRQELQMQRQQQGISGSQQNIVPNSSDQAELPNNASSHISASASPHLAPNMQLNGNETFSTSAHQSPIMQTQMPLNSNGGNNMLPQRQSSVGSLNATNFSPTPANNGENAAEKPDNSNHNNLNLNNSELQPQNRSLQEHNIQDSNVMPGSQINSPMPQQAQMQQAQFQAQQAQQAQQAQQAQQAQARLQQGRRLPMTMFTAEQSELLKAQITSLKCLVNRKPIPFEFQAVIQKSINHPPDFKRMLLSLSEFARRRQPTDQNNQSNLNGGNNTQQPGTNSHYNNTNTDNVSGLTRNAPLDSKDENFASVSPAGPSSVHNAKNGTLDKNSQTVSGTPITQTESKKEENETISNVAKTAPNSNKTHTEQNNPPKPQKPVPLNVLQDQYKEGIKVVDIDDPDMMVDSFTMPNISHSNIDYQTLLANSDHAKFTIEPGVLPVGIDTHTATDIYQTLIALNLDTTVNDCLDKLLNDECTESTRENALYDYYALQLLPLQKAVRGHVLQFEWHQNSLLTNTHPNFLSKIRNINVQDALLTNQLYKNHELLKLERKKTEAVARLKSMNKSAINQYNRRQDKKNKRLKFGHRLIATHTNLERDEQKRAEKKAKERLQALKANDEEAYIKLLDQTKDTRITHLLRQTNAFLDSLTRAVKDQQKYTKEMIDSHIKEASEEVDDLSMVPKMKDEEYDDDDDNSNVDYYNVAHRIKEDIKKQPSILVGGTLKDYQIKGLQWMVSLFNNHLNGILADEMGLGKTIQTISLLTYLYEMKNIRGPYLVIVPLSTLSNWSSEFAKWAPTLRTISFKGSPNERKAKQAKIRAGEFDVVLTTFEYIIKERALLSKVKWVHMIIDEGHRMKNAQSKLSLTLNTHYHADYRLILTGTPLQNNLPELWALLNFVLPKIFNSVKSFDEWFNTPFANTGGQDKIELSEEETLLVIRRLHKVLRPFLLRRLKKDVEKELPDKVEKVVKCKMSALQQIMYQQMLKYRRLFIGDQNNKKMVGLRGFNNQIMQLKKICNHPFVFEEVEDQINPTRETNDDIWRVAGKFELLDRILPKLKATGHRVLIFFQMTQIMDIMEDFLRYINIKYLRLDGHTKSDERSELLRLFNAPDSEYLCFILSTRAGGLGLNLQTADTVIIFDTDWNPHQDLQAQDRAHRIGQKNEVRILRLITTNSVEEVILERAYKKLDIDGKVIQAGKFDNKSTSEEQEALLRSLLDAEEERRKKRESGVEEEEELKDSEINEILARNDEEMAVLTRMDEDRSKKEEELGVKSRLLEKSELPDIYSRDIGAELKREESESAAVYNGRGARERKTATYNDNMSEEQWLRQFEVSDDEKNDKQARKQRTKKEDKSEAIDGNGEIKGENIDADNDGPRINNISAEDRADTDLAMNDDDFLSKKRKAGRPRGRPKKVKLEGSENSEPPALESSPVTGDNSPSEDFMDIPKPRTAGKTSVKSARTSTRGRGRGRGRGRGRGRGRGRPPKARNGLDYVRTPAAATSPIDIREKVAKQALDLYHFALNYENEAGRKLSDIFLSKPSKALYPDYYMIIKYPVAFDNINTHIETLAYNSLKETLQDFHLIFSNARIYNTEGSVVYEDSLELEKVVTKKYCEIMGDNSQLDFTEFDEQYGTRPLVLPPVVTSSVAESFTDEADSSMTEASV

B1
binding result (Snf5): binds
binding result (Swi3): binds

B2
binding result (Swi1): binds
binding result (Snf12): binds
binding result (Swi3): binds

B3
binding result (Snf2): binds
stoichiometry N (cryo-EM structure): 2
binding result (Snf5): binds
binding result (Swi1): binds

B4
binding result (Swi1): binds
binding result (Swi3): binds

B5
binding result (Swi1): binds

Source: article doi:10.1101/805184 (bioRxiv, 2019)
